Experimental data from article PMC11659886, “Bioinformatics-Facilitated Identification of Novel Bacterial Sulfoglycosidases That Hydrolyze 6-Sulfo-N-acetylglucosamine” (ACS Bio & Med Chem Au, 2024).

What was measured:
[1] = test system: T1, CC(=O)N[C@H]1[C@H](Oc2ccc3c(C)cc(=O)oc3c2)O[C@H](COS(=O)(=O)O)[C@@H](O)[C@@H]1O; assay: fluorometric release of 4-methylumbelliferone, Michaelis-Menten fit; type: biochemical, Bacteroides thetaiotaomicron; details: pH 5.5, 25 °C, 25 mM Bis-tris propane, 25 mM citrate, 300 mM NaCl
T1 construct: residues 22-546, His6-tagged (pET23-Bt4394(22-546)-6His), expressed in E. coli BL21(DE3)
Text: (§1) fluorometric release of 4-methylumbelliferone, Michaelis-Menten fit on Bt4394

[2] = test system: CC(=O)N[C@H]1[C@H](Oc2ccc3c(C)cc(=O)oc3c2)O[C@H](CO)[C@@H](O)[C@@H]1O; assay: as above; type: biochemical, Prevotella sp. CAG:5226; details: pH 6.0, 25 °C, 25 mM Bis-tris propane, 25 mM citrate, 300 mM NaCl
Text: (§2) fluorometric release of 4-methylumbelliferone, Michaelis-Menten fit on WG enzyme

[3] = test system: CC(=O)N[C@H]1[C@H](Oc2ccc3c(C)cc(=O)oc3c2)O[C@H](COS(=O)(=O)O)[C@@H](O)[C@@H]1O; assay: as above; type: biochemical, Prevotella sp. CAG:5226; details: pH 6.0, 25 °C, 25 mM Bis-tris propane, 25 mM citrate, 300 mM NaCl
Text: as §2

[4] = test system: CC(=O)N[C@H]1[C@H](Oc2ccc3c(C)cc(=O)oc3c2)O[C@H](COS(=O)(=O)O)[C@@H](O)[C@@H]1O; assay: purified protein; details: pH 6.0, 25 °C, 25 mM Bis-tris propane, 25 mM citrate, 300 mM NaCl
[5] = test system: CC(=O)N[C@H]1[C@H](Oc2ccc3c(C)cc(=O)oc3c2)O[C@H](CO)[C@@H](O)[C@@H]1O; assay: purified protein; details: pH 6.0, 25 °C, 25 mM Bis-tris propane, 25 mM citrate, 300 mM NaCl
Text: fluorometric release of 4-methylumbelliferone, Michaelis-Menten fit on YG enzyme

[6] = substrate: CC(=O)N[C@H]1[C@H](Oc2ccc3c(C)cc(=O)oc3c2)O[C@H](CO)[C@@H](O)[C@@H]1O; assay: fluorometric release of 4-methylumbelliferone, Michaelis-Menten fit; type: biochemical, Bacteroides thetaiotaomicron; details: pH 5.5, 25 °C, 25 mM Bis-tris propane, 25 mM citrate, 300 mM NaCl
Text: as §1

[7] = substrate: CC(=O)N[C@H]1[C@H](Oc2ccc3c(C)cc(=O)oc3c2)O[C@H](COS(=O)(=O)O)[C@@H](O)[C@@H]1O; assay: as above; type: biochemical, Bacteroides thetaiotaomicron; details: pH 5.5, 25 °C, 25 mM Bis-tris propane, 25 mM citrate, 300 mM NaCl
Text: as §1

With “Bt4394 (Bacteroides thetaiotaomicron VPI-5482; I432G/Q431W)” the Km [1] was 194 ± 16 µM, the kcat [1] was 12 ± 0.3 s⁻¹ and the kcat/Km [1] was 60000 ± 20000 M⁻¹ s⁻¹.

“Bt4394 (Bacteroides thetaiotaomicron VPI-5482; I432G/Q431Y)” showed a Km [1] of 546 ± 37 µM, a kcat [1] of 31.6 ± 0.7 s⁻¹ and a kcat/Km [1] of 60000 ± 20000 M⁻¹ s⁻¹.

WG enzyme (Prevotella sp. CAG:5226) was tested, and the Km [2] was 2706 ± 344 µM, the kcat [2] was 11.6 ± 0.5 s⁻¹ and the kcat/Km [2] was 4000 ± 2000 M⁻¹ s⁻¹. The Km [3] was 5.1 ± 0.3 µM, the kcat [3] was 39.9 ± 0.6 s⁻¹ and the kcat/Km [3] was 8e+06 ± 2e+06 M⁻¹ s⁻¹.

Molecule “WG enzyme (Prevotella sp. CAG:5226; N423D)” has a Km [4] of 56 ± 6 µM, a kcat [4] of 69 ± 4 s⁻¹ and a kcat/Km [4] of 1.2e+06 ± 700000 M⁻¹ s⁻¹.

Work on “WG enzyme (Prevotella sp. CAG:5226; R424A)” yielded a Km [4] of 47 ± 6 µM, a kcat [4] of 62 ± 2 s⁻¹ and a kcat/Km [4] of 1.3e+06 ± 300000 M⁻¹ s⁻¹.

Molecule “WG enzyme (Prevotella sp. CAG:5226; W417A)” has a Km [4] of 17 ± 2 µM, a kcat [4] of 45 ± 1 s⁻¹ and a kcat/Km [4] of 2.6e+06 ± 300000 M⁻¹ s⁻¹.

Work on “YG enzyme (Alloprevotella sp. oral taxon 473 str. F0040)” yielded a Km [5] of 2209 ± 355 µM, a kcat [5] of 11.7 ± 0.7 s⁻¹ and a kcat/Km [5] of 5000 ± 2000 M⁻¹ s⁻¹. The Km [4] was 12 ± 1 µM, the kcat [4] was 76 ± 2 s⁻¹ and the kcat/Km [4] was 6e+06 ± 2e+06 M⁻¹ s⁻¹.

“YG enzyme (Alloprevotella sp. oral taxon 473 str. F0040; N445D)” gave a Km [4] of 130 ± 14 µM, a kcat [4] of 98 ± 3 s⁻¹ and a kcat/Km [4] of 800000 ± 200000 M⁻¹ s⁻¹.

“YG enzyme (Alloprevotella sp. oral taxon 473 str. F0040; R446A)” showed a Km [4] of 90 ± 9 µM, a kcat [4] of 97 ± 3 s⁻¹ and a kcat/Km [4] of 1.1e+06 ± 300000 M⁻¹ s⁻¹.

B1: Bt4394 (Bacteroides thetaiotaomicron VPI-5482) (protein)
chain: QEIALTPQPAHLTVKDGRFEFGNQLKAKVTPYQGDSIRMVFESFKKELQEATGIKVSSTQKEAKARIILDLNPQLPAEAYKLNVSKKQVRIEASRPAGFYYALQTLKQLMPRNVMAGVATSDHSQWSLPSVEIEDAPRFEWRGFMLDEGRHFFGKDEIKRVIDMMAIYKMNRFHWHLTEDQGWRIEIKKYPKLTETGAWRNSKVLAYGDVKPDGERYGGFYTQKDIKEIVAYAKKKFIEIIPEIDIPGHSQAAVAAYPEFLACDPRDKHEVWLQQGISTDVINVANPKAMQFAKEVIDELTELFPFNYIHLGGDECPTRKWQKNDECKKLLSEIGSSNFRDLQIYFYKQLKDYIATKPADQQRQLIFWNEVLHGNTSILGNDITIMAWIGANAAAKQAAKQGMNTILSPQIPYYINRKQSKLPTEPMSQGHGTETVEAVYNYQPLKDVDAALQPYYKGVQANFWTEWVTEPSVLEYLMLPRLAAVAEAGWTPQEKRNYEDFKERIRKDAELYDLKGWNYGKHIMK
notes: residues 22-546, His6-tagged (pET23-Bt4394(22-546)-6His), expressed in E. coli BL21(DE3)
Work on B1 yielded a Km [6] of 2183 ± 189 µM, a kcat [6] of 2.9 ± 0.1 s⁻¹ and a kcat/Km [6] of 1300 ± 500 M⁻¹ s⁻¹. The Km [7] was 39 ± 4 µM, the kcat [7] was 25.8 ± 0.7 s⁻¹ and the kcat/Km [7] was 700000 ± 200000 M⁻¹ s⁻¹.
